The results in this text go back to patent US20230036503A1, “Fusion Protein, Amino Acid Sequence Thereof, Coding Nucleotide Sequence Thereof, Preparation Method Thereof and Use Thereof” (priority 2019, published 2023).

The test system of this assay is Fusarium graminearum. In kind it is in vivo. As to conditions: corn leaves, 100 nM.

B1: His-MP7: heptapeptide fusion protein, SEQ ID NO: 15: elf18, csp22, flg22, flgII-28, nlp20, pep1, pip1 in sequence, linkers GAG and AGA, HIS tag (protein)
chain: MGSSHHHHHHSSGLVPRGSHMASMTGGQQMGRDPNSSSVDKLSKEKFERTKPHVNVGTIGGAGAVGTVKWFNAEKGFGFITPDDGAGAQRLSTGSRINSAKDDAAGLQIAGAGESTNILQRMRELAVQSRNDSNSATDREAGAGAIMYSWYFPKDSPVTGLGHRAGAATKVKAKQRGKEKVSSGRPGQHNAGARLASGPSPRGRGH
modifications: his-MP7
In turn, B1 registered a scab area percentage (3-4 days, untreated 12.3%) of 3.6%. For the same molecule, the “infection rate of Fusarium graminearum lowered by” value (versus untreated) is given as 70.8%.
